Results from publication PMC7199855, “GRAF2, WDR44, and MICAL1 mediate Rab8/10/11–dependent export of E-cadherin, MMP14, and CFTR ΔF508” (The Journal of Cell Biology, 2020).

B1: GFP-VAPA [human] / myc-WDR44 [human] (parent complex)
chain 1: MASASGAMAKHEQILVLDPPTDLKFKGPFTDVVTTNLKLRNPSDRKVCFKVKTTAPRRYCVRPNSGIIDPGSTVTVSVMLQPFDYDPNEKSKHKFMVQTIFAPPNTSDMEAVWKEAKPDELMDSKLRCVFEMPNENDKLNDMEPSKAVPLNASKQDGPMPKPHSVSLNDTETRKLMEECKRLQGEMMKLSEENRHLRDEGLRLRKVAHSDKPGSTSTASFRDNVTSPLPSLLVVIAAIFIGFFLGKFIL
chain 2: MASESDTEEFYDAPEDVHLGGGYPVGSPGKVGLSTFKETENTAYKVGNESPVQELKQDVSKKIIESIIEESQKVLQLEDDSLDSKGKELSDQATASPIVARTDLSNIPGLLAIDQVLPEESQKAESQNTFEETELELKKCFPSDETCEKPVDETTKLTQTSSTEQLNVLETETEVLNKEAVEVKGGGDVLEPVSSDSLSTKDFAAVEEVAPAKPPRHLTPEPDIVASTKKPVPARPPPPTNFPPPRPPPPSRPAPPPRKRKSELEFETLKTPDIDVPKENITSDSLLTASMASESTVKDSQPSLDLASATSGDKIVTAQENGKAPDGQTVAGEVMGPQRPRSNSGRELTDEEILASVMIKNLDTGEEIPLSLAEEKLPTGINPLTLHIMRRTKEYVSNDAAQSDDEEKLQSQPTDTDGGRLKQKTTQLKKFLGKSVKRAKHLAEEYGERAINKVKSVRDEVFHTDQDDPSSSDDEGMPYTRPVKFKAAHGFKGPYDFDQIKVVQDLSGEHMGAVWTMKFSHCGRLLASAGQDNVVRIWALKNAFDYFNNMRMKYNTEGRVSPSPSQESLSSSKSDTDTGVCSGTDEDPDDKNAPFRQRPFCKYKGHTADLLDLSWSKNYFLLSSSMDKTVRLWHISRRECLCCFQHIDFVTAIAFHPRDDRYFLSGSLDGKLRLWNIPDKKVALWNEVDGQTKLITAANFCQNGKYAVIGTYDGRCIFYDTEHLKYHTQIHVRSTRGRNKVGRKITGIEPLPGENKILVTSNDSRIRLYDLRDLSLSMKYKGYVNSSSQIKASFSHDFTYLVSGSEDKYVYIWSTYHDLSKFTSVRRDRNDFWEGIKAHNAVVTSAIFAPNPSLMLSLDVQSEKSEGNEKSEDAEVLDATPSGIMKTDNTEVLLSADFTGAIKVFVNKRKNVS
B2: myc-MICAL1 [human] / GRAF2-GFP [human] (parent complex)
chain 1: MASPTSTNPAHAHFESFLQAQLCQDVLSSFQELCGALGLEPGGGLPQYHKIKDQLNYWSAKSLWTKLDKRAGQPVYQQGRACTSTKCLVVGAGPCGLRVAVELALLGARVVLVEKRTKFSRHNVLHLWPFTIHDLRALGAKKFYGRFCTGTLDHISIRQLQLLLLKVALLLGVEIHWGVTFTGLQPPPRKGSGWRAQLQPNPPAQLANYEFDVLISAAGGKFVPEGFKVREMRGKLAIGITANFVNGRTVEETQVPEISGVARIYNQSFFQSLLKATGIDLENIVYYKDDTHYFVMTAKKQCLLRLGVLRQDWPDTNRLLGSANVVPEALQRFTRAAADFATHGKLGKLEFAQDAHGQPDVSAFDFTSMMRAESSARVQEKHGARLLLGLVGDCLVEPFWPLGTGVARGFLAAFDAAWMVKRWAEGAESLEVLAERESLYQLLSQTSPENMHRNVAQYGLDPATRYPNLNLRAVTPNQVRDLYDVLAKEPVQRNNDKTDTGMPATGSAGTQEELLRWCQEQTAGYPGVHVSDLSSSWADGLALCALVYRLQPGLLEPSELQGLGALEATAWALKVAENELGITPVVSAQAVVAGSDPLGLIAYLSHFHSAFKSMAHSPGPVSQASPGTSSAVLFLSKLQRTLQRSRAKENAEDAGGKKLRLEMEAETPSTEVPPDPEPGVPLTPPSQHQEAGAGDLCALCGEHLYVLERLCVNGHFFHRSCFRCHTCEATLWPGGYEQHPGDGHFYCLQHLPQTDHKAEGSDRGPESPELPTPSENSMPPGLSTPTASQEGAGPVPDPSQPTRRQIRLSSPERQRLSSLNLTPDPEMEPPPKPPRSCSALARHALESSFVGWGLPVQSPQALVAMEKEEKESPFSSEEEEEDVPLDSDVEQALQTFAKTSGTMNNYPTWRRTLLRRAKEEEMKRFCKAQTIQRRLNEIEAALRELEAEGVKLELALRRQSSSPEQQKKLWVGQLLQLVDKKNSLVAEEAELMITVQELNLEEKQWQLDQELRGYMNREENLKTAADRQAEDQVLRKLVDLVNQRDALIRFQEERRLSELALGTGAQG
chain 2: MGLQPLEFSDCYLDSPWFRERIRAHEAELERTNKFIKELIKDGKNLIAATKSLSVAQRKFAHSLRDFKFEFIGDAVTDDERCIDASLREFSNFLKNLEEQREIMALSVTETLIKPLEKFRKEQLGAVKEEKKKFDKETEKNYSLIDKHLNLSAKKKDSHLQEADIQVEQNRQHFYELSLEYVCKLQEIQERKKFEFVEPMLSFFQGMFTFYHQGHELAKDFNHYKMELQINIQNTRNRFEGTRSEVEELMNKIRQNPKDHKRASQFTAEGYLYVQEKRPAPFGSSWVKHYCMYRKAAKKFNMIPFEHRSGGKLGDGEVFFLKECTKRHTDSIDRRFCFDIEAADRPGVSLTMQAFSEEERKQWLEALGGKEALSHSFNTAIIPRPEGNAQLDKMGFTIIRKCISAVETRGINDQGLYRVVGVSSKVQRLLSMLMDVKTCNEVDLENSADWEVKTITSALKQYLRSLPEPLMTYELHGDFIVPAKSGSPESRVNAIHFLVHKLPEKNKEMLDILVKHLTNVSNHSKQNLMTVANLGVVFGPTLMRPQEETVAALMDLKFQNIVVEILIENHEKIFRTPPDTTFPEPTCLSASPPNAPPRQSKRQGQRTKRPVAVYNLCLELEDGDNPYPSKEDTPTSSLDSLSSPSPVTTAVPGPPGPDKNHLLADGGSFGDWASTIPGQTRSSMVQWLNPQSPTTTSSNSAVTPLSPGSSPFPFSPPATVADKPPESIRSRKARAVYPCEAEHSSELSFEIGAIFEDVQTSREPGWLEGTLNGKRGLIPQNYVKLL
B3: myc-MICAL1 [human] / GRAF1b-GFP [human] (parent complex)
chain 1: B2 chain 1
chain 2: MGLPALEFSDCCLDSPHFRETLKSHEAELDKTNKFIKELIKDGKSLISALKNLSSAKRKFADSLNEFKFQCIGDAETDDEMCIARSLQEFATVLRNLEDERIRMIENASEVLITPLEKFRKEQIGAAKEAKKKYDKETEKYCGILEKHLNLSSKKKESQLQEADSQVDLVRQHFYEVSLEYVFKVQEVQERKMFEFVEPLLAFLQGLFTFYHHGYELAKDFGDFKTQLTISIQNTRNRFEGTRSEVESLMKKMKENPLEHKTISPYTMEGYLYVQEKRHFGTSWVKHYCTYQRDSKQITMVPFDQKSGGKGGEDESVILKSCTRRKTDSIEKRFCFDVEAVDRPGVITMQALSEEDRRLWMEAMDGREPVYNSNKDSQSEGTAQLDSIGFSIIRKCIHAVETRGINEQGLYRIVGVNSRVQKLLSVLMDPKTASETETDICAEWEIKTITSALKTYLRMLPGPLMMYQFQRSFIKAAKLENQESRVSEIHSLVHRLPEKNRQMLQLLMNHLANVANNHKQNLMTVANLGVVFGPTLLRPQEETVAAIMDIKFQNIVIEILIENHEKIFNTVPDMPLTNAQLHLSRKKSSDSKPPSCSERPLTLFHTVQSTEKQEQRNSIINSSLESVSSNPNSILNSSSSLQPNMNSSDPDLAVVKPTRPNSLPPNPSPTSPLSPSWPMFSAPSSPMPTSSTSSDSSPVSTPFRKAKALYACKAEHDSELSFTAGTVFDNVHPSQEPGWLEGTLNGKTGLIPENYVEFL

Variants of: B1
Test: co-immunoprecipitation (IP with α-GFP, quantified western blot); transfected 293T cells; n = 3 or 4; means ± SEM; parent: 1; read off a plot

ratio to parent	Variant
~0.4	chain 1 MASASGAMAKHEQILVLDPPTDLKFKGPFTDVVTTNLKLRNPSDRKVCFKVKTTAPRRYCVRPNSGIIDPGSTVTVSVMLQPFDYDPNEKSKHDFDVQTIFAPPNTSDMEAVWKEAKPDELMDSKLRCVFEMPNENDKLNDMEPSKAVPLNASKQDGPMPKPHSVSLNDTETRKLMEECKRLQGEMMKLSEENRHLRDEGLRLRKVAHSDKPGSTSTASFRDNVTSPLPSLLVVIAAIFIGFFLGKFIL [chain 1 K94D, chain 1 M96D]

Variants of: B2
Test: co-immunoprecipitation (IP with α-myc-coated beads, quantified western blot); transfected 293T cells; n = 3 or 4; means ± SEM; parent: 1; read off a plot

ratio to parent	Variant
~0.03	chain 1 K832A

Variants of: B3
Test: co-immunoprecipitation (IP with α-myc-coated beads, quantified western blot); transfected 293T cells; n = 3–5; means ± SEM; parent: 1; read off a plot

ratio to parent	Variant
~0.05	chain 1 K832A
